The record followed here is patent US20070258992A1.

This test addresses mouse synaptosomes. Kind of test: inhibition of active BoNT/A binding to synaptosomes.

For the substance “inactive BoNT/A (formaldehyde-inactivated toxoid) (from UniProt P0DPI0 2-1296)”, the maximum inhibition stood at 98%.
